Results reported in patent US11833164B2, “Methods of treating Fabry disease in patients having a mutation in the GLA gene” (Amicus Therapeutics, Inc., priority 2019, dated 2023).
Substitutions are numbered along the chain they refer to. In names and notes the source's numbering stands.

B1: A352S (protein)
chain: MQLRNPELHLGCALALRFLALVSWDIPGARALDNGLARTPTMGWLHWERFMCNLDCQEEPDSCISEKLFMEMAELMVSEGWKDAGYEYLCIDDCWMAPQRDSEGRLQADPQRFPHGIRQLANYVHSKGLKLGIYADVGNKTCAGFPGSFGYYDIDAQTFADWGVDLLKFDGCYCDSLENLADGYKHMSLALNRTGRSIVYSCEWPLYMWPFQKPNYTEIRQYCNHWRNFADIDDSWKSIKSILDWTSFNQERIVDVAGPGGWNDPDMLVIGNFGLSWNQQVTQMALWAIMAAPLFMSNDLRHISPQAKALLQDKDVIAINQDPLGKQGYQLRQGDNFEVWERPLSGLAWAVSMINRQEIGGPRSYTIAVASLGKGVACNPACFITQLLPVKRKLGFYEWTSRLRSHINPTGTVLLQLENTMQMSLKDLL
B2: A352T (protein)
chain: B1 chain with S352T
B3: M353K (protein)
chain: B1 chain with S352A, M353K
B4: M353L (protein)
chain: B1 chain with S352A, M353L
B5: M353T (protein)
chain: B1 chain with S352A, M353T
B6: I354R (protein)
chain: B1 chain with S352A, I354R
B7: N355D (protein)
chain: B1 chain with S352A, N355D
B8: N355H (protein)
chain: B1 chain with S352A, N355H
B9: N355S (protein)
chain: B1 chain with S352A, N355S
B10: N355Y (protein)
chain: B1 chain with S352A, N355Y
B11: R356L (protein)
chain: B1 chain with S352A, R356L
B12: Q357E (protein)
chain: B1 chain with S352A, Q357E
B13: I359F (protein)
chain: B1 chain with S352A, I359F
B14: I359L (protein)
chain: B1 chain with S352A, I359L
B15: I359N (protein)
chain: B1 chain with S352A, I359N
B16: I359S (protein)
chain: B1 chain with S352A, I359S
B17: I359V (protein)
chain: B1 chain with S352A, I359V
B18: P362A (protein)
chain: B1 chain with S352A, P362A
B19: P362H (protein)
chain: B1 chain with S352A, P362H
B20: P362R (protein)
chain: B1 chain with S352A, P362R
B21: P362S (protein)
chain: B1 chain with S352A, P362S

tested on: mutant form of α-Gal A expressed in HEK-293 cells; test: HEK assay (GLP HEK / Migalastat Amenability Assay): α-Gal A activity in lysates of transiently transfected HEK-293 cells incubated with or without 10 μM migalastat; type: cell-based, human; conditions: 10 μM migalastat versus baseline
Summary of the method: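 HEK-293 cells transiently transfected with mutant α-Gal A and incubated with or without 10 μM migalastat; lysate activity given as nmol free 4-MU released per mg protein per hour. Values are mean±SEM.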

Molecule	Absolute increase (% WT)	Relative increase
B1	12.1 % WT	1.2
B2	31.0 % WT	1.9
B3	13.0 % WT	1.4
B4	14.6 % WT	1.2
B5	19.2 % WT	1.4
B6	27.8 % WT	2.4
B7	16.7 % WT	3.3
B8	9.9 % WT	3.5
B9	30.8 % WT	2.2
B10	26.6 % WT	2.8
B11	43.7 % WT	2.8
B12	41.5 % WT	1.9
B13	14.1 % WT	2.1
B14	25.6 % WT	1.7
B15	12.5 % WT	1.6
B16	29.6 % WT	1.3
B17	31.6 % WT	1.6
B18	40.1 % WT	1.4
B19	33.4 % WT	3.9
B20	23.9 % WT	1.8
B21	53.8 % WT	1.8

same assay, conditions: absence of migalastat; percentage of baseline wild-type α-Gal A activity; mean ± SEM

Molecule	Baseline α-Gal A activity (% WT)
B1	52.8 ± 3.7 % WT
B2	37.2 ± 2.1 % WT
B3	30.3 ± 1.8 % WT
B4	66.6 ± 2.7 % WT
B5	46.4 ± 2.8 % WT
B6	20.1 ± 1.2 % WT
B7	7.3 ± 0.4 % WT
B8	4 ± 0.2 % WT
B9	25.9 ± 1.6 % WT
B10	15.2 ± 1 % WT
B11	24.4 ± 1 % WT
B12	42.8 ± 2.1 % WT
B13	13 ± 1 % WT
B14	39.1 ± 1.8 % WT
B15	20.8 ± 1.2 % WT
B16	101.6 ± 6.3 % WT
B17	51.5 ± 3.4 % WT
B18	100.8 ± 9.5 % WT
B19	11.2 ± 1 % WT
B20	25 ± 3.1 % WT
B21	71.2 ± 7.7 % WT

same assay, conditions: lysates of HEK-293 cells transiently transfected with the mutant form, incubated 5 days in absence of migalastat; mean ± SEM

Molecule	Baseline α-Gal A activity
B1	23476 ± 1901 nmol/mg/h
B2	15803 ± 777 nmol/mg/h
B3	13638 ± 804 nmol/mg/h
B4	30347 ± 1572 nmol/mg/h
B5	15631 ± 1026 nmol/mg/h
B6	9157 ± 633 nmol/mg/h
B7	3366 ± 241 nmol/mg/h
B8	1822 ± 81 nmol/mg/h
B9	11397 ± 817 nmol/mg/h
B10	5994 ± 461 nmol/mg/h
B11	10680 ± 518 nmol/mg/h
B12	15264 ± 877 nmol/mg/h
B13	6138 ± 568 nmol/mg/h
B14	16254 ± 909 nmol/mg/h
B15	10862 ± 655 nmol/mg/h
B16	37737 ± 2594 nmol/mg/h
B17	20990 ± 1174 nmol/mg/h
B18	35322 ± 3087 nmol/mg/h
B19	3713 ± 377 nmol/mg/h
B20	8745 ± 1176 nmol/mg/h
B21	25234 ± 2794 nmol/mg/h

same assay, conditions: lysates of HEK-293 cells transiently transfected with the mutant form, incubated 5 days with 10 μM migalastat; mean ± SEM

Molecule	10 μM migalastat α-Gal A activity
B1	28397 ± 1310 nmol/mg/h
B2	29351 ± 1532 nmol/mg/h
B3	19335 ± 946 nmol/mg/h
B4	36987 ± 1768 nmol/mg/h
B5	21953 ± 937 nmol/mg/h
B6	21854 ± 1398 nmol/mg/h
B7	11004 ± 832 nmol/mg/h
B8	6399 ± 338 nmol/mg/h
B9	24820 ± 1396 nmol/mg/h
B10	16930 ± 1745 nmol/mg/h
B11	29548 ± 2017 nmol/mg/h
B12	28922 ± 1194 nmol/mg/h
B13	13144 ± 1091 nmol/mg/h
B14	26791 ± 1713 nmol/mg/h
B15	17332 ± 879 nmol/mg/h
B16	48055 ± 2727 nmol/mg/h
B17	34265 ± 1528 nmol/mg/h
B18	49809 ± 2721 nmol/mg/h
B19	14620 ± 531 nmol/mg/h
B20	15971 ± 1019 nmol/mg/h
B21	45209 ± 4138 nmol/mg/h

same assay, conditions: with 10 μM migalastat, 5 days; percentage of baseline wild-type α-Gal A activity; mean ± SEM

Molecule	10 μM migalastat α-Gal A activity (% WT)
B1	64.9 ± 2.5 % WT
B2	68.2 ± 3.2 % WT
B3	43.4 ± 2.6 % WT
B4	81.2 ± 2.7 % WT
B5	65.6 ± 3 % WT
B6	47.9 ± 2.6 % WT
B7	24 ± 1.6 % WT
B8	13.9 ± 0.6 % WT
B9	56.7 ± 2.8 % WT
B10	41.8 ± 3.3 % WT
B11	68.1 ± 4.6 % WT
B12	84.3 ± 6.3 % WT
B13	27 ± 1.6 % WT
B14	64.7 ± 3.9 % WT
B15	33.3 ± 1.8 % WT
B16	131.2 ± 8.4 % WT
B17	83.1 ± 3.3 % WT
B18	140.9 ± 8.5 % WT
B19	44.6 ± 1.9 % WT
B20	48.9 ± 4.1 % WT
B21	125 ± 9 % WT
